Test results published in PMC3421056 (2012).

Legend:
Factor Xa [1] = molecular target: T1, Factor Xa (Homo sapiens, UniProt P00742); assay: chromogenic substrate S2222 inhibition, apparent Ki
T1 chain: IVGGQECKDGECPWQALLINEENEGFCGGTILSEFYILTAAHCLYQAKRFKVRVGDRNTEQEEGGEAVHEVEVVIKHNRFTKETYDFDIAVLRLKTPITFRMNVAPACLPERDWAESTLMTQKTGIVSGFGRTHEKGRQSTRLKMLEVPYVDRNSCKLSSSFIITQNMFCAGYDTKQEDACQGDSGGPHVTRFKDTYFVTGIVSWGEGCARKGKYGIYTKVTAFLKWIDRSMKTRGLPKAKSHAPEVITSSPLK

Factor Xa [2] = molecular target: T1, Factor Xa; assay: ITC
Factor Xa [3] = molecular target: T1, Factor Xa; assay: SPR kinetics
Factor Xa [4] = molecular target: T1, Factor Xa; assay: SPR steady-state
Factor Xa [5] = molecular target: T1, Factor Xa; assay: chromogenic substrate S2222 inhibition, alphaKi

B1: Lufaxin 1-278 (protein)
chain: DGDEYFIGKYKEKDETLFFASYGLKRDPCQIVLGYKCSNNQTHFVLNFKTNKKSCISAIKLTSYPKINQNSDLTKNLYCQTGGIGTDNCKLVFKKRKRQIAANIEIYGIPAKKCSFKDRYIGADPLHVDSYGLPYQFDQEHGWNVERYNIFKDTRFSTEVFYHKNGLFNTQITYLAEEDSFSEAREITAKDIKKKFSIILPNEEYKRISFLDVYWFQETMRKKPKYPYIHYNGECSNENKTCELVFDTDELMTYALVKVFTNPESDGSRLKEEDLGRG
Ki (Factor Xa [1]): 0.95 nM | Kd (Factor Xa [2]): 2.1 nM | Kd (Factor Xa [3]): 3.86 nM | Kd (Factor Xa [4]): 9.69 nM

B2: Lufaxin 1-278 (protein)
chain: DGDEYFIGKYKEKDETLFFASYGLKRDPCQIVLGYKCSNNQTHFVLNFKTNKKSCISAIKLTSYPKINQNSDLTKNLYCQTGGIGTDNCKLVFKKRKRQIAANIEIYGIPAKKCSFKDRYIGADPLHVDSYGLPYQFDQEHGWNVERYNIFKDTRFSTEVFYHKNGLFNTQITYLAEEDSFSEAREITAKDIKKKFSIILPNEEYKRISFLDVYWFQETMRKKPKYPYIHYNGECSNENKTCELVFDTDELMTYALVKVFTNPESDGSRLKEEDLGRG
modifications: S2222 substrate-bound FXa
Ki (Factor Xa [5]): 2.21 nM
